In PMC7347597, “INTS10–INTS13–INTS14 form a functional module of Integrator that binds nucleic acids and the cleavage module” (Nature Communications, 2020):

What was measured:
[1] = biological target: T1, INT cleavage module (His10-INTS4–INTS9–(2S)-INTS11) (human, UniProt Q96HW7 1-963; Q9NV88 1-658; Q5TA45 1-600); test: pull-down; GST-INTS13 C-terminal constructs from E. coli lysates with insect cell extracts expressing cleavage module subunits, on glutathione sepharose; 50 mM HEPES pH 7.5, 200 mM NaCl, 2 mM DTT; Coomassie gel and Western blots; conditions: partners not purified
T1 construct: INTS4, human; INTS9, human; INTS11, human; The tags are named in the methods of the copurification assays; also called INTS4–INTS9–INTS11; INTS4–9–11; source: insect cells (HighFive, baculovirus), coexpressed; in cell extract and purified (StrepTrap, heparin, Superose 6); not shown: His10, N-terminal, kept; tandem Strep tag (2S), N-terminal, kept; copies: + +

[2] = biological target: T2, INTS13-INTS14 heterodimer (Homo sapiens, UniProt Q9NVM9;Q96SY0 1-706;1-518); test: fluorescence polarization; FP: 10 nM RNA, 10 mM HEPES pH 7.5, 5% glycerol, 2 mM MgCl2, 50 mM NaCl or none added, temperature not stated; EMSA: 50 mM HEPES pH 7.5, 200 mM NaCl, 2 mM MgCl2, on ice, 2 uM RNA or 1 uM DNA; conditions: protein: recombinant; tags: INTS13 N-terminal 2xStrep, HRV 3C cleavable (removed if needed); copies: 1;1; label: 5'-6-FAM; single strand
[3] = biological target: T3, INTS10-INTS13-INTS14 heterotrimer (Homo sapiens, UniProt Q9NVR2;Q9NVM9;Q96SY0 1-710;1-706;1-518); test: as above; conditions: protein: recombinant; tags: INTS13 N-terminal 2xStrep, HRV 3C cleavable (removed if needed); copies: 1;1;1; label: 5'-6-FAM; single strand
[4] = biological target: T2, INTS13-INTS14 heterodimer; test: EMSA; FP: 10 nM RNA, 10 mM HEPES pH 7.5, 5% glycerol, 2 mM MgCl2, 50 mM NaCl or none added, temperature not stated; EMSA: 50 mM HEPES pH 7.5, 200 mM NaCl, 2 mM MgCl2, on ice, 2 uM RNA or 1 uM DNA; conditions: protein: recombinant; tags: INTS13 N-terminal 2xStrep, HRV 3C cleavable (removed if needed); copies: 1;1; hairpin
[5] = biological target: T3, INTS10-INTS13-INTS14 heterotrimer; test: as above; conditions: protein: recombinant; tags: INTS13 N-terminal 2xStrep, HRV 3C cleavable (removed if needed); copies: 1;1;1; hairpin

T2 sequence (Q9NVM9 whole entry, chain 1 of 2): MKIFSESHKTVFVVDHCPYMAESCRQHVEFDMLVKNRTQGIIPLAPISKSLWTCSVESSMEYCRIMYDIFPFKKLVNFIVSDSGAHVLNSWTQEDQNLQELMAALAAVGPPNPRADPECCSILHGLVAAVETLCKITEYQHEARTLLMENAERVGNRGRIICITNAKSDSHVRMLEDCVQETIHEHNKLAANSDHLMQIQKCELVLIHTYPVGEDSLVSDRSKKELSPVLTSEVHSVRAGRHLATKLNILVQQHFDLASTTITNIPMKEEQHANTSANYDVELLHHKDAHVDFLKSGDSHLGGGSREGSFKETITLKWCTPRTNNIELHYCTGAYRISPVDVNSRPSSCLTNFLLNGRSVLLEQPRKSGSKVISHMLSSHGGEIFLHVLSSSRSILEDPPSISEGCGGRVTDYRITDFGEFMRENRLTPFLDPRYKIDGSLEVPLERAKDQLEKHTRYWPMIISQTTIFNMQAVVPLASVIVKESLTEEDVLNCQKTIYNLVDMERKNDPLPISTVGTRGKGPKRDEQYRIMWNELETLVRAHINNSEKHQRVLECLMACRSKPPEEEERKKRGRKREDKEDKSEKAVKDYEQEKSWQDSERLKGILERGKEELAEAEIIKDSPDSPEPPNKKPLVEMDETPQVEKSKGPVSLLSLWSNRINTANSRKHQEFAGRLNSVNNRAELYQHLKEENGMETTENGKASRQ
T2 sequence (Q96SY0 whole entry, chain 2 of 2): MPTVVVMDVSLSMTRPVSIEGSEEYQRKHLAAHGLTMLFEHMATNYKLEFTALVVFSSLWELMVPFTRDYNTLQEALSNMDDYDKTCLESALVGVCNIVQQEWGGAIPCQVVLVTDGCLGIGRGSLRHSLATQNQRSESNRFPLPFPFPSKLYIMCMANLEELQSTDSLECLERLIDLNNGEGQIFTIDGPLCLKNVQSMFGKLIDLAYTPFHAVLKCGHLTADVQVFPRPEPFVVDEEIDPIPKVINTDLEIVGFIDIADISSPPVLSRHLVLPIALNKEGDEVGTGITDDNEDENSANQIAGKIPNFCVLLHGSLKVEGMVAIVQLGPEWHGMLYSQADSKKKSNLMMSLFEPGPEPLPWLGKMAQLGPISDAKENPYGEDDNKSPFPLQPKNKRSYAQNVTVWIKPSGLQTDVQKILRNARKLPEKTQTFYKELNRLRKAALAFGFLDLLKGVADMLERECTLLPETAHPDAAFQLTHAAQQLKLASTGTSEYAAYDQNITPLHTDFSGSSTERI
T3 sequence (Q9NVR2 whole entry, chain 1 of 3): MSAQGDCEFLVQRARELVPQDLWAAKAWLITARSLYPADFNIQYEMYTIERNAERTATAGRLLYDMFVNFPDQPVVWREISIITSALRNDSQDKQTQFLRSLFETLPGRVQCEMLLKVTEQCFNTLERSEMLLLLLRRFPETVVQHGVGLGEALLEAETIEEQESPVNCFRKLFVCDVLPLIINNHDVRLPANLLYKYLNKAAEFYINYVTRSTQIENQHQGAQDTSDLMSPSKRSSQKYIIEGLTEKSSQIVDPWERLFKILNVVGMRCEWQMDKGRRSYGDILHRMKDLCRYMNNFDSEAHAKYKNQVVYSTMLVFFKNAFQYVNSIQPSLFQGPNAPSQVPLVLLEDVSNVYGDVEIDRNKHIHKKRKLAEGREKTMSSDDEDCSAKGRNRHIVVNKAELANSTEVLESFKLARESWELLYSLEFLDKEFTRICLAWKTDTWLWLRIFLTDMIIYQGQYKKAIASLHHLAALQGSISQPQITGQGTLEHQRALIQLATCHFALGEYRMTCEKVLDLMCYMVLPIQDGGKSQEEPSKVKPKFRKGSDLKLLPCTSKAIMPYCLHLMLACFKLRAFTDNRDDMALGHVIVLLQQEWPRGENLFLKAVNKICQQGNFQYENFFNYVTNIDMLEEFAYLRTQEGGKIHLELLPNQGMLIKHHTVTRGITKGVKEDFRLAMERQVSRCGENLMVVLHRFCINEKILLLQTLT
T3 sequence (Q9NVM9 whole entry, chain 2 of 3): as the sequence (Q9NVM9 whole entry, chain 1 of 2) above
T3 sequence (Q96SY0 whole entry, chain 3 of 3): as the sequence (Q96SY0 whole entry, chain 2 of 2) above
T1 sequence (Q96HW7 whole entry, chain 1 of 3): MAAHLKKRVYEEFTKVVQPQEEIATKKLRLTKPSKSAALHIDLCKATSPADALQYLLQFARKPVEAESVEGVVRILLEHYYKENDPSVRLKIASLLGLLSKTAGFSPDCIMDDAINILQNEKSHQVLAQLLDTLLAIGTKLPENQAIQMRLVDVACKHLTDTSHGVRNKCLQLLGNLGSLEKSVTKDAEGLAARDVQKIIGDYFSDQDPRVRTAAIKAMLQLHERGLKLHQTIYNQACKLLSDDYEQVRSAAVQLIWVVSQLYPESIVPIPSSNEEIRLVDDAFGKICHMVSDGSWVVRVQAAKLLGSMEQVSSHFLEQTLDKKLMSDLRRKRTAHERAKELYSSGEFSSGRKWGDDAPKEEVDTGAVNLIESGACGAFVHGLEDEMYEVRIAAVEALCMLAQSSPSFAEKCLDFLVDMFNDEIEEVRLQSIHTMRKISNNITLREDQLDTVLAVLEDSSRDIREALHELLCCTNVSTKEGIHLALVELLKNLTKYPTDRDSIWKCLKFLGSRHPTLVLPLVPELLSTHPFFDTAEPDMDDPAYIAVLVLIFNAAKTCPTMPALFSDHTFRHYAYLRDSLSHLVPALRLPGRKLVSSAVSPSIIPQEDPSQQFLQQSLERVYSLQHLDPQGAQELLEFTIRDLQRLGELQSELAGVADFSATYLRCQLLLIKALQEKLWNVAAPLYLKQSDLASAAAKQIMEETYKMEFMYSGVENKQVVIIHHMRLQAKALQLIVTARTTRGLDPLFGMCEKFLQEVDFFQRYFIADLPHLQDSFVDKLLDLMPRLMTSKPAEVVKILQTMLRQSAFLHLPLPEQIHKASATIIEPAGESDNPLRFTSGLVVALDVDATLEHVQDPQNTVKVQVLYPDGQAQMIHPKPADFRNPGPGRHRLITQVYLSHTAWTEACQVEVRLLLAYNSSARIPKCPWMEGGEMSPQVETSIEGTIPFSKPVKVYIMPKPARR
T1 sequence (Q9NV88 whole entry, chain 2 of 3): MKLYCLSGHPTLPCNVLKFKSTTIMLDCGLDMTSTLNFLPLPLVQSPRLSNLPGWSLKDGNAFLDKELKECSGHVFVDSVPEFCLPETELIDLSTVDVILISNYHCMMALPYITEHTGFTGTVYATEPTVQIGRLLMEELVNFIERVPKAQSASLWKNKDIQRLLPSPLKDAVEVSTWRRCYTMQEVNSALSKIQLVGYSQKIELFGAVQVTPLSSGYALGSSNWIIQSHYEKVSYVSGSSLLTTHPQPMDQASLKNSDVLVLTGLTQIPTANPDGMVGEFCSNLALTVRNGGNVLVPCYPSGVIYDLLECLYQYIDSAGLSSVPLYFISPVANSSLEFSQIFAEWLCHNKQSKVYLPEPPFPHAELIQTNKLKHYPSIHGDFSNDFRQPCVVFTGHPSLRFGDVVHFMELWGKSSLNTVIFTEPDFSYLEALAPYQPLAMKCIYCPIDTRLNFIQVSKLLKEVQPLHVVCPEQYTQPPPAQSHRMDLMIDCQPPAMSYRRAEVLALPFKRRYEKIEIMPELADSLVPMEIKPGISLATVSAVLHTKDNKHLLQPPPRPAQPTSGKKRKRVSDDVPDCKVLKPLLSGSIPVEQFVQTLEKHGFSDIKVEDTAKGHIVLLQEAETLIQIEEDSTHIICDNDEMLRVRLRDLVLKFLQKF
T1 sequence (Q5TA45 whole entry, chain 3 of 3): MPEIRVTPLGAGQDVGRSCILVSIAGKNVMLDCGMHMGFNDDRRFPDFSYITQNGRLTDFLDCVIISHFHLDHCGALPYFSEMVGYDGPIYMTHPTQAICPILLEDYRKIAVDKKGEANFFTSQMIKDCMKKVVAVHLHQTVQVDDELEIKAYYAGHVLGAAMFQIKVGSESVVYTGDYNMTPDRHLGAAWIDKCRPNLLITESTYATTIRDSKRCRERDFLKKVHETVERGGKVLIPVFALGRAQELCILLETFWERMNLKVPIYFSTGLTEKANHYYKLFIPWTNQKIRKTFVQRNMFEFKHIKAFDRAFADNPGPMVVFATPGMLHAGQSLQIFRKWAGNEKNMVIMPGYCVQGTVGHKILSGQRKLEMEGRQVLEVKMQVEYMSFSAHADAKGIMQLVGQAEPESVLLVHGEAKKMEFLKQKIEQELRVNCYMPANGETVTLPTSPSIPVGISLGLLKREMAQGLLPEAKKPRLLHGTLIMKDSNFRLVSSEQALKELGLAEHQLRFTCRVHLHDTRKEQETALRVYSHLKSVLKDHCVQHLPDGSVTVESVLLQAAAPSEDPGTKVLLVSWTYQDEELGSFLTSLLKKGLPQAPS

B1: GST-INTS13 cleavage module-binding motif (CMBM, residues 649–694) (domain or fragment, human, UniProt Q9NVM9 649-694, looked up)
chain: GPVSLLSLWSNRINTANSRKHQEFAGRLNSVNNRAELYQHLKEENG
notes: INTS13, human, conserved C-terminal helices, residues 649–694; also called GST-CMBM; INTS13 CMBM; source: E. coli BL21 Star (DE3), in lysate; not shown: GST, N-terminal, kept
[1]
  binding result: binds

## UUUUUUUUUUUU (ssRNA) [U12 RNA]
[2]
  Kd: 570 ± 50 nM
[3]
  Kd: 420 ± 20 nM

## GGGUGGGGGACUGCGUUCGCGCUUUCCCCUGGCCGG (structured_RNA) [U1 SL4]
[4]
  binding result: binds
[5]
  apparent K (half saturation): ~1000 nM
